T1: cynomolgus monkey (Macaca fascicularis) ROR2, full length, on CHO cells (cynomolgus monkey (Macaca fascicularis), UniProt Q01974 34-943 (human entry))
T1 construct: also called ROR2mf; CHO-mfROR2
T1 chain: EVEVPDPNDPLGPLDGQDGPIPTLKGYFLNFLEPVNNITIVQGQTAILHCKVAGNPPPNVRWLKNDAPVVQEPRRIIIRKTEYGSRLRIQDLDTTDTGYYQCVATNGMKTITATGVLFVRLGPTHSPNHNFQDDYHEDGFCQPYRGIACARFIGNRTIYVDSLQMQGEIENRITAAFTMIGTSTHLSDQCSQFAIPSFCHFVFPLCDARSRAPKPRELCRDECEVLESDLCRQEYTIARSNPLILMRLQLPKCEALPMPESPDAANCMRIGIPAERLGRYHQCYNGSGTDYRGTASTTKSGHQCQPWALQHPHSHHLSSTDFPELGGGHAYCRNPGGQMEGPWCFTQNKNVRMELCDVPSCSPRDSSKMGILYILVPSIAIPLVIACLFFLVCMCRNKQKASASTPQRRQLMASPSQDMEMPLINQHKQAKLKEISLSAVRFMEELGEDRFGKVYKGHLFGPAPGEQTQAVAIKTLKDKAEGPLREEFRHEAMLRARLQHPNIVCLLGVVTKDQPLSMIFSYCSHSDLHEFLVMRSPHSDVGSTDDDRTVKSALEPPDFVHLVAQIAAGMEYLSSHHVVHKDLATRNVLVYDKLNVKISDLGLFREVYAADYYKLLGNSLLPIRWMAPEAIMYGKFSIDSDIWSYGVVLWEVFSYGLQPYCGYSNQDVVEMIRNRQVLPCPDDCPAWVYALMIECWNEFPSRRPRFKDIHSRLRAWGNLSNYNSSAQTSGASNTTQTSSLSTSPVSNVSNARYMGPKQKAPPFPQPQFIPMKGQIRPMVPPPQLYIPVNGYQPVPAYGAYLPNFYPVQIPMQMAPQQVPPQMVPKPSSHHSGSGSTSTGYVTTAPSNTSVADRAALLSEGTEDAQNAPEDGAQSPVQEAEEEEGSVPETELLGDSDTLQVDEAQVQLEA

B1: IgG1-ROR2-A-HC4LC3-FEAR (antibody)
heavy: EVQLLESGGGLVQPGGSLRLSCTVSGFSLSSYSMSWVRQAPGKGLEWIGVIYVNSKTWYANWAKGRFTISKDNSKNTVYLQMNSLRAEDTATYYCARGDAGYTTNSWLWGQGTLVTVSSASTKGPSVFPLAPSSKSTSGGTAALGCLVKDYFPEPVTVSWNSGALTSGVHTFPAVLQSSGLYSLSSVVTVPSSSLGTQTYICNVNHKPSNTKVDKRVEPKSCDKTHTCPPCPAPEFEGGPSVFLFPPKPKDTLMISRTPEVTCVVVAVSHEDPEVKFNWYVDGVEVHNAKTKPREEQYNSTYRVVSVLTVLHQDWLNGKEYKCKVSNKALPAPIEKTISKAKGQPREPQVYTLPPSREEMTKNQVSLTCLVKGFYPSDIAVEWESNGQPENNYKTTPPVLDSDGSFFLYSRLTVDKSRWQQGNVFSCSVMHEALHNHYTQKSLSLSPGK
light: AFELTQSPSSLSASVGDRVTITCQASESIDNYLSWYQQKPGKAPKLLIYQAFKLASGVPSRFRGSGSGTDFTLTISSLQPEDFATYYCQSYSGISTTAFGGGTKVEIKRTVAAPSVFIFPPSDEQLKSGTASVVCLLNNFYPREAKVQWKVDNALQSGNSQESVTEQDSKDSTYSLSSTLTLSKADYEKHKVYACEVTHQGLSSPVTKSFNRGEC
notes: Humanized variant, full-length IgG1 with L234F, L235E, D265A, K409R; also called IgG1-ROR2-HC4LC3
B2: bsIgG1-huCD3-H101G-FEAL×chROR2-A-FEAR (bispecific antibody)
heavy 1: not shown
light 1: not shown
heavy 2: QSVEESGGRLVTPGTPLTLTCTVSGFSLSSYSMSWVRQAPGKGLEWIGVIYVNSKTWYANWAKGRFTISKTSTTVDLKITSPTTEDTATYFCARGDAGYTTNSWLWGPGTLVTVSSASTKGPSVFPLAPSSKSTSGGTAALGCLVKDYFPEPVTVSWNSGALTSGVHTFPAVLQSSGLYSLSSVVTVPSSSLGTQTYICNVNHKPSNTKVDKRVEPKSCDKTHTCPPCPAPEFEGGPSVFLFPPKPKDTLMISRTPEVTCVVVAVSHEDPEVKFNWYVDGVEVHNAKTKPREEQYNSTYRVVSVLTVLHQDWLNGKEYKCKVSNKALPAPIEKTISKAKGQPREPQVYTLPPSREEMTKNQVSLTCLVKGFYPSDIAVEWESNGQPENNYKTTPPVLDSDGSFFLYSRLTVDKSRWQQGNVFSCSVMHEALHNHYTQKSLSLSPGK
light 2: AFELTQTPASVSEPVGGTVTIKCQASESIDNYCSWYQQKPGQPPKLLIYQAFKLASGVPSRFRGSGSGTQFTLTISDLESDDAATYYCQSYSGISTTAFGGGTEVVVKRTVAAPSVFIFPPSDEQLKSGTASVVCLLNNFYPREAKVQWKVDNALQSGNSQESVTEQDSKDSTYSLSSTLTLSKADYEKHKVYACEVTHQGLSSPVTKSFNRGEC
B3: IgG1-ROR2-A-HC2LC4-FEAR (antibody)
heavy: QSVLESGGGLVQPGGSLRLSCTVSGFSLSSYSMSWVRQAPGKGLEWIGVIYVNSKTWYANWAKGRFTISKTSTTVYLQMNSLRAEDTATYFCARGDAGYTTNSWLWGQGTLVTVSSASTKGPSVFPLAPSSKSTSGGTAALGCLVKDYFPEPVTVSWNSGALTSGVHTFPAVLQSSGLYSLSSVVTVPSSSLGTQTYICNVNHKPSNTKVDKRVEPKSCDKTHTCPPCPAPEFEGGPSVFLFPPKPKDTLMISRTPEVTCVVVAVSHEDPEVKFNWYVDGVEVHNAKTKPREEQYNSTYRVVSVLTVLHQDWLNGKEYKCKVSNKALPAPIEKTISKAKGQPREPQVYTLPPSREEMTKNQVSLTCLVKGFYPSDIAVEWESNGQPENNYKTTPPVLDSDGSFFLYSRLTVDKSRWQQGNVFSCSVMHEALHNHYTQKSLSLSPGK
VL: DIQLTQSPSSLSASVGDRVTITCQASESIDNYLSWYQQKPGKAPKLLIYQAFKLASGVPSRFRGSGSGTDFTLTISSLQPEDFATYYCQSYSGISTTAFGGGTKVEIK
notes: Humanized variant
B4: IgG1-ROR2-A-HC2LC1-FEAR (antibody, V domains shown)
VH: QSVLESGGGLVQPGGSLRLSCTVSGFSLSSYSMSWVRQAPGKGLEWIGVIYVNSKTWYANWAKGRFTISKTSTTVYLQMNSLRAEDTATYFCARGDAGYTTNSWLWGQGTLVTVSS
VL: AFELTQSPSSLSASVGDRVTITCQASESIDNYCSWYQQKPGKAPKLLIYQAFKLASGVPSRFRGSGSGTDFTLTISSLQSEDFATYYCQSYSGISTTAFGGGTEVVIK
notes: Humanized variant
B5: IgG1-ROR2-A-HC1LC4-FEAR (antibody)
heavy: QSVLESGGGLVQPGGSLRLSCTVSGFSLSSYSMSWVRQAPGKGLEWIGVIYVNSKTWYANWAKGRFTISKTSTTVDLKITSPTAEDTATYFCARGDAGYTTNSWLWGQGTLVTVSSASTKGPSVFPLAPSSKSTSGGTAALGCLVKDYFPEPVTVSWNSGALTSGVHTFPAVLQSSGLYSLSSVVTVPSSSLGTQTYICNVNHKPSNTKVDKRVEPKSCDKTHTCPPCPAPEFEGGPSVFLFPPKPKDTLMISRTPEVTCVVVAVSHEDPEVKFNWYVDGVEVHNAKTKPREEQYNSTYRVVSVLTVLHQDWLNGKEYKCKVSNKALPAPIEKTISKAKGQPREPQVYTLPPSREEMTKNQVSLTCLVKGFYPSDIAVEWESNGQPENNYKTTPPVLDSDGSFFLYSRLTVDKSRWQQGNVFSCSVMHEALHNHYTQKSLSLSPGK
VL: DIQLTQSPSSLSASVGDRVTITCQASESIDNYLSWYQQKPGKAPKLLIYQAFKLASGVPSRFRGSGSGTDFTLTISSLQPEDFATYYCQSYSGISTTAFGGGTKVEIK
notes: Humanized variant
B6: IgG1-ROR2-A-HC2LC2-FEAR (antibody, V domains shown)
VH: QSVLESGGGLVQPGGSLRLSCTVSGFSLSSYSMSWVRQAPGKGLEWIGVIYVNSKTWYANWAKGRFTISKTSTTVYLQMNSLRAEDTATYFCARGDAGYTTNSWLWGQGTLVTVSS
VL: AFELTQSPSSLSASVGDRVTITCQASESIDNYLSWYQQKPGKAPKLLIYQAFKLASGVPSRFRGSGSGTDFTLTISSLQSEDFATYYCQSYSGISTTAFGGGTEVVIK
notes: Humanized variant
B7: IgG1-ROR2-A-HC2LC3-FEAR (antibody)
heavy: QSVLESGGGLVQPGGSLRLSCTVSGFSLSSYSMSWVRQAPGKGLEWIGVIYVNSKTWYANWAKGRFTISKTSTTVYLQMNSLRAEDTATYFCARGDAGYTTNSWLWGQGTLVTVSSASTKGPSVFPLAPSSKSTSGGTAALGCLVKDYFPEPVTVSWNSGALTSGVHTFPAVLQSSGLYSLSSVVTVPSSSLGTQTYICNVNHKPSNTKVDKRVEPKSCDKTHTCPPCPAPEFEGGPSVFLFPPKPKDTLMISRTPEVTCVVVAVSHEDPEVKFNWYVDGVEVHNAKTKPREEQYNSTYRVVSVLTVLHQDWLNGKEYKCKVSNKALPAPIEKTISKAKGQPREPQVYTLPPSREEMTKNQVSLTCLVKGFYPSDIAVEWESNGQPENNYKTTPPVLDSDGSFFLYSRLTVDKSRWQQGNVFSCSVMHEALHNHYTQKSLSLSPGK
VL: AFELTQSPSSLSASVGDRVTITCQASESIDNYLSWYQQKPGKAPKLLIYQAFKLASGVPSRFRGSGSGTDFTLTISSLQPEDFATYYCQSYSGISTTAFGGGTKVEIK
notes: Humanized variant
B8: IgG1-ROR2-A-HC1LC3-FEAR (antibody)
heavy: QSVLESGGGLVQPGGSLRLSCTVSGFSLSSYSMSWVRQAPGKGLEWIGVIYVNSKTWYANWAKGRFTISKTSTTVDLKITSPTAEDTATYFCARGDAGYTTNSWLWGQGTLVTVSSASTKGPSVFPLAPSSKSTSGGTAALGCLVKDYFPEPVTVSWNSGALTSGVHTFPAVLQSSGLYSLSSVVTVPSSSLGTQTYICNVNHKPSNTKVDKRVEPKSCDKTHTCPPCPAPEFEGGPSVFLFPPKPKDTLMISRTPEVTCVVVAVSHEDPEVKFNWYVDGVEVHNAKTKPREEQYNSTYRVVSVLTVLHQDWLNGKEYKCKVSNKALPAPIEKTISKAKGQPREPQVYTLPPSREEMTKNQVSLTCLVKGFYPSDIAVEWESNGQPENNYKTTPPVLDSDGSFFLYSRLTVDKSRWQQGNVFSCSVMHEALHNHYTQKSLSLSPGK
VL: AFELTQSPSSLSASVGDRVTITCQASESIDNYLSWYQQKPGKAPKLLIYQAFKLASGVPSRFRGSGSGTDFTLTISSLQPEDFATYYCQSYSGISTTAFGGGTKVEIK
notes: Humanized variant

Key:
[1] = biological target: T2, his-tagged ROR2 extracellular domain (ROR2-ECD, G&P Biosciences, cat. no. FCL0192) (human, UniProt Q01974 34-403); test: BLI (Octet), antibody on anti-human IgG Fc sensor, ROR2-ECD 1.56-100 nM as analyte
T2 construct: Bought protein; also called human ROR2-ECD; recombinant human ROR2-ECD; not shown: his tag

[2] = biological target: T1, cynomolgus monkey (Macaca fascicularis) …; test: flow cytometry on CHO cells expressing cynomolgus monkey ROR2
Experimental: Next, binding of bispecific CD3×ROR2 antibodies and monospecific ROR2 antibodies to CHO cells expressing human or cynomolgus monkey ROR2 was determined, using 5×10⁴ transfected cells/well and an antibody concentration range from 0.01-10 μg/mL.

[3] = biological target: T3, cynomolgus monkey ROR2 in which threonine at position 322 is replaced by methionine (ROR2mf-T322M) (cynomolgus monkey (Macaca fascicularis), UniProt Q01974 34-943 (human entry)); test: flow cytometry on CHO cells expressing ROR2mf-T322M
T3 construct: also called RORmf-T322M

[4] = biological target: human (Homo sapiens) ROR2, full length, on cells (human, UniProt Q01974 34-943); test: cell-based or functional assay
Chain of human (Homo sapiens) ROR2, full length, on cells (Q01974 34-943 limits assumed): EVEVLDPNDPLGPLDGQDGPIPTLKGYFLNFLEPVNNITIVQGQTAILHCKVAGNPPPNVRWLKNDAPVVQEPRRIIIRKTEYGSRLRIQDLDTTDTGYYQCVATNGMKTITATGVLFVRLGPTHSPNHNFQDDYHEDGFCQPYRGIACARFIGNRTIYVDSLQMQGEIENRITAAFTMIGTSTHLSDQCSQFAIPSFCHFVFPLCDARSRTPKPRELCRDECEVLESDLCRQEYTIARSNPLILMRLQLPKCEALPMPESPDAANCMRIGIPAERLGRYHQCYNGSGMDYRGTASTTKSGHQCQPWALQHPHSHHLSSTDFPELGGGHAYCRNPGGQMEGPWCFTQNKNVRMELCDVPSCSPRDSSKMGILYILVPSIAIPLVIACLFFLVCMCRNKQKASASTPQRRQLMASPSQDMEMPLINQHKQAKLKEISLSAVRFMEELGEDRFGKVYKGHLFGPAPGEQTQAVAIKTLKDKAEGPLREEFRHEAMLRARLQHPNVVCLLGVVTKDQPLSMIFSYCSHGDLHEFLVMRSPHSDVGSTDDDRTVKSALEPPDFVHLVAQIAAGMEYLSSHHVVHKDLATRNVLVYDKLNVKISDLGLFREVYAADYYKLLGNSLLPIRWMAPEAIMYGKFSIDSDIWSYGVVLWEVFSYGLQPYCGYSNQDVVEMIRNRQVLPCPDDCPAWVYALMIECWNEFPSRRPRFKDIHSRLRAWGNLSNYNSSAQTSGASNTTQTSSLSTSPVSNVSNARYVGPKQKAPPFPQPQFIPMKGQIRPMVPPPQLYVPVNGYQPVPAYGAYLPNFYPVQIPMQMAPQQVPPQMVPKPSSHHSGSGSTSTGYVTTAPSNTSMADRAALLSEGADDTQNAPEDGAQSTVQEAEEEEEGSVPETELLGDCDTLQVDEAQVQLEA

T2 sequence (Q01974 34-403): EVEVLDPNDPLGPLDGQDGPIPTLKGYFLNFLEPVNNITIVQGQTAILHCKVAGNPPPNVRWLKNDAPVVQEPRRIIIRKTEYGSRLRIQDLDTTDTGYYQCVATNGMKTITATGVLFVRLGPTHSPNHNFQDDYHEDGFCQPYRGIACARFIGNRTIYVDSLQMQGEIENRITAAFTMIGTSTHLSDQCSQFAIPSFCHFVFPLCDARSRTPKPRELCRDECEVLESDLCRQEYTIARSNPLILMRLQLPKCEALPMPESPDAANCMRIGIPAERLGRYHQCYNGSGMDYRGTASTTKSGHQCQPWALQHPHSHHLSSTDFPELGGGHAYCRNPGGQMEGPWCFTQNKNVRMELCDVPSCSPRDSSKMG

Row | Binder | Kd [1] | koff [1] | kon [1] | other results
1 | B1 | 1.1 nM | 0.00068 s⁻¹ | 600000 M⁻¹ s⁻¹ | binding result [2]: binds
2 | B2 | – | – | – | binding result [3]: binds; IC50 of T cell mediated cytotoxicity, 786-O cells, human T cells, E:T 8:1 [4]: 0.088 µg/mL; IC50 of T cell mediated cytotoxicity, Hela cells, human T cells, E:T 8:1 [4]: 0.424 µg/mL; IC50 of T cell mediated cytotoxicity, LCLC-103H cells, human T cells, E:T 8:1 [4]: 0.511 µg/mL; IC50 of T cell mediated cytotoxicity, NCI-H23 cells, human T cells, E:T 8:1 [4]: 0.58 µg/mL; IC50 of T cell mediated cytotoxicity, NCI-H1650 cells, human T cells, E:T 8:1 [4]: 0.693 µg/mL; IC50 of T cell mediated cytotoxicity, ZR-75-1 cells, human T cells, E:T 8:1 [4]: 0.424 µg/mL
3 | B3 | 2.2 nM | 0.0011 s⁻¹ | 510000 M⁻¹ s⁻¹ | –
4 | B4 | 1.7 nM | 0.00085 s⁻¹ | 510000 M⁻¹ s⁻¹ | –
5 | B5 | 2 nM | 0.0012 s⁻¹ | 560000 M⁻¹ s⁻¹ | –
6 | B6 | 1.8 nM | 0.00089 s⁻¹ | 510000 M⁻¹ s⁻¹ | –
7 | B7 | 2 nM | 0.001 s⁻¹ | 490000 M⁻¹ s⁻¹ | –
8 | B8 | 1.8 nM | 0.00097 s⁻¹ | 550000 M⁻¹ s⁻¹ | –

Source: US20230365714A1 (published 2023)
